Measurements published in patent US20140287419A1, “Compositions Having Dicamba Decarboxylase Activity and Methods of Use” (priority 2013, published 2014).

Assay: 14C assay with IPTG-induced recombinant E. coli cells (14CO2 capture from [14C]-carboxyl-labeled dicamba)
Settings: E. coli cell assay, 108 sequences tested

B1: SEQ ID NO:58: amidohydrolase 2, Mycobacterium colombiense CECT 3035 (protein)
chain: MARVIALEEHYATTEFLRGPGTWLASRPGIVEPAGDLGDGRIAAMDQAGVDLAVLSLAAPGVEQLDPDDAVRLARDCNDQLAAAVRRYPDRLAGFATVPTSAPDRAADELERAVRGLGFPGAVINGHSRGRYLDDPFFEPVLARAAELQAPIYLHPTIPPAGVIESSYAGFAEPVTFALATVGWGWHINTATHALRMILGGVFDRHPSLQMIIGHMGEATSFMLPRFDATLKPELTGLNHPVSSYLRENFHYTFANFNDHATYANLVAQVGIERVAFSADYPFGSMVDARAFLDGLPLSDDERAAISHRNAEKLLGL
modifications: Mycobacterium colombiense
decarboxylation activity of dicamba: showed decarboxylation activity of dicamba

B2: SEQ ID NO:57: amidohydrolase, Collimonas fungivorans Ter331 (protein)
chain: MAKLICVEEHVLDPAVGAATQSLVRAEAPYLPDWGSRVLDGRHVADRSRPHVIAPSESARKALEMGEPRLADMDAASIDMQVLSYGGFPQLLPAAQAIDLNRAANDKLALAAQAHPARFAGFATLPWQAPEAAARELERAVKQLGLKGALINGRPGDTFLDDARYAPILAAFDELKVPLYVHPGLPLPAVQAPYYGGFERELSARLAMFAWGWHNEAGIQVVRMLLAGVFDRHPRLQLISGHWGEMVPFFLQRLEDSIPQEASGLQRPIVQTYREHVYISPSGMFTLPHFQFIHALMGAQRILYSIDYPYQSLDGARAFIERLPISDTDKALIAHRNAERLLHL
modifications: Collimonas fungivorans
decarboxylation activity of dicamba: showed decarboxylation activity of dicamba

B3: SEQ ID NO:53: amidohydrolase, Granulicella tundricola MP5ACTX9 (protein, listed as Granulicella tundricola)
chain: MARTITLEEHFVTDSFLRATGAYDKPAPPWLAQLQPKLLDLGDGRIAAMDEAGIDLQVLSLAALGFDALDAATATPLVHDINDELAAAVRANPTRLAAFASLALKDPQSAARELERAIQKLGFRGVLLDGTTDGLFLDDPRFTPVFEAAVALNVPIYLHPAPPPESVFDTYFTGLPEGVGQMLSIAGWGWHAETALHTLRLITNGVFDRYPTLQLIIGHMGEMLPMALARTSKALSHAARLRQPVAAYFQSNIHLTTSGYFTQPPLRCALDVVGIDRLMFSIDYPFSANTLGRDYLTELEQTLTPEDLAKLIHRNAESLLNLS
decarboxylation activity of dicamba: showed decarboxylation activity of dicamba

B4: SEQ ID NO:48: amidohydrolase, Amycolatopsis mediterranei U32 (protein, listed as Amycolatopsis mediterranei)
chain: MASMKLYGLEEHFVTADVIEAWRRRDPGLAEPMMKWAVASDITPALLDVDGGRIAAMDDAGIDTTVLSLTTPGLQNLDAAEAVALQAPTNDLIAAAVRRHPGRFQGFATLATSAPAAAADELRRAVTELGLNGALVNANSRGRALDAPGFWDIYEAAEDLRAPVYLHPGVPVPAVTEAYYRGFGEPVNSMLATGAFGWHYDAGLTILRMIVAGVFDRFPGLQVILGHWGEVVLFYLDRVAAMDKLTALRRPIAEYFRSNIFITPGGISSHKYLRWSLETVGVERIMYASDYPFNTERAGSARRFLDTAPVDEAGRERIAYRNWEELIAGIRR
decarboxylation activity of dicamba: showed decarboxylation activity of dicamba

B5: SEQ ID NO:47: hypothetical protein SOD_m00560, Serratia odorifera 4Rx13 (protein, listed as Serratia odorifera)
chain: MAKIICLEEHTLDKALVMASMPAALAQAPFLSDWGKTITDGNLPDRSRPQIEKNDLINVKGADIGRGRLDDMDEAGITMQVLSVGGFPHLISAAEGVDLNRAANDRLANAVNAHPDRFAAFATLPWAQPDAAEKELERAVKELGFKGALLNGRPSIHFLDHPDYDGLLARFNALGVPLYLHPGLPVRSVQQAYYSGFSDEVTARLSMFGWGWHHEAGIHLLRLILSGAFDKYPNLQVISGHWGEMLPFWLQRLDDSLPQAATGLRRTITQTFREQVYVTPSGMLTLPHFQFIYALLGAERILFSVDYPYQTLDGVKAFIQSLPVPEEAKEAIAFRNAERLFGLTS
decarboxylation activity of dicamba: showed decarboxylation activity of dicamba

B6: SEQ ID NO:2: o-pyrocatechuate decarboxylase, Serratia sp. AS12 (protein, listed as Serratia sp.)
chain: MAKIICLEEHTLDKALVMASMPAALEQAPFLSDWGKTVTDGNLPDRSRPQIEKNDLINIKGADIGRGRLDDMDVAGITMQVLSVGGFPHLISAAEGVDLNRAANDRLADAVNAHPDRFAAFATLPWAQPDSAEKELERAVKELGFKGALLNGRPSTHFLDHPDYDGLLARFNALGVPLYLHPGLPVRSVQQAYYGGFSDEVTARLSMFGWGWHHEAGIHLLRLILSGAFDKYPNLQVISGHWGEMLPFWLQRLDDSLPQAATGLRRTIAQTFKEQVYVTPSGMLTLPHFQFIYALLGAERIIFSVDYPYQTLDGVKAFIQSLPVPEEAKEAIAFRNAERLLGLTS
decarboxylation activity of dicamba: showed decarboxylation activity of dicamba

B7: SEQ ID NO:55: o-pyrocatechuate decarboxylase, Serratia sp. AS12 (protein, listed as Serratia sp.)
chain: MAKIICLEEHTLDKALVMASMPAALEQAPFLSDWGKTVTDGNLPDRSRPQIEKNDLINIKGADIGRGRLDDMDVAGITMQVLSVGGFPHLISAAEGVDLNRAANDRLADAVNAHPDRFAAFATLPWAQPDSAEKELERAVKELGFKGALLNGRPSTHFLDHPDYDGLLARFNALGVPLYLHPGLPVRSVQQAYYGGFSDEVTARLSMFGWGWHHEAGIHLLRLILSGAFDKYPNLQVISGHWGEMLPFWLQRLDDSLPQAATGLRRTIAQTFKEQVYVTPSGMLTLPHFQFIYALLGAERIIFSVDYPYQTLDGVKAFIQSLPVPEEAKEAIAFRNAERLLGLTS
decarboxylation activity of dicamba: showed decarboxylation activity of dicamba

B8: SEQ ID NO:56: hypothetical protein EAE_19025, Enterobacter aerogenes KCTC 2190 (protein)
chain: MAKIICLEEHYLDSELGRACMPVALEQAPFLGDWGKTVADGHNPDRSRPQIEKNALINAKGADLGSRRLRDMDEAGITLQILSVGGFPQLAPEDEAVTLNTAANDRLAEAVRNHPDRFAAFATLPWAQPKDAENELVRAVEKLGFKGALLNGRPSSCFLDHPDYDSLLSRFNKLNVPLYLHPGLPLKSVQQAYFTGFSAEVNARLSMFGWGWHHEAGIHLLRLMLSGAFDKYPNMQVISGHWGEMLPFWLQRLDDSLPLAATGLSRTLTRTFQEHVYVTPSGMLTLPHFKFIYELMGAERILFSVDYPYQTLDGVKTFIDSLPVNKAEKEAIAFRNAERLLGITA
modifications: Enterobacter aerogenes
decarboxylation activity of dicamba: showed decarboxylation activity of dicamba

B9: SEQ ID NO:50: hypothetical protein SSMG_03140, Streptomyces sp. AA4 (protein, listed as Streptomyces sp.)
chain: MARIVTLEEHWTDPAVTAAGMPNLLDHVPGYAAAFDPDTGMPYPRHPELLEDLGAARIADMDRHGITTQVLSLVNTFLPADVAPRLTAAANDAMAAAVEAFPGRFAAFATLPTAVPGAAADELRRCVGELGFVGTMIMGRTDGEFLDQPRFDPILRAASDLSVPVYLHPAPPPVAVSEASYAGGLSPAVSAAFRLAAWGWHQETAVHLLHLVLAGVLDRYPGLQFVLGHWGEFIPFYLDRLDESMPRRMTGLDRTFREYFRDNVFITPSGMFSQAQLRYCADTVGTDRIIHSVDFPMLGNEGAVSFLTDSHLSREDQEKIAHGNADALLGLG
decarboxylation activity of dicamba: showed decarboxylation activity of dicamba

B10: SEQ ID NO:51: TIM-barrel fold metal-dependent hydrolase, Mycobacterium gilvum Spyr1 (protein, listed as Mycobacterium gilvum)
chain: MARVIAIEEHYAHPGLQPAEALANLRKHPQLARIQDKLEDLGAGRLADMDAAGIDMQVLSHTVPGAEALPAAQAVDVVRQTNDDLAEVIAAHPDRFAGFAALPMRDPQAAATELQRAVGTLGFCGAMINGLIEGRFLDHPDFTPLLSTAADLGVPLYLHPSFPPPQVAQIYFGGLPPVLADLLATAGWGWHAETALHVLRLISTGVFDRLPELRVIVGHMGEMIPFALARIDTVLSPMTELRQPVAQYFQTNVWFTTSGYTTFPPLQCALSTVGIDRLIFSVDYPYTDNASARALLDTAPISPVDREKLAHATVEALLRV
decarboxylation activity of dicamba: showed decarboxylation activity of dicamba

B11: SEQ ID NO:49: amidohydrolase 2, Streptomyces sp. SPB78 (protein, listed as Streptomyces sp.)
chain: MAKIIALEEHFSDPAVAKAGAARARALSPGFAASYSPASGLPYSPSPEVLENLAEKRLADMDAGGITMQVLSGLGAQTVPADVAPALVAGSNDKAAAAVRAHPDRFAAFAALPTATPEAAVAELDRSVNELGFVGTLIMGRTEGEFLDAPRFEPILARAAALKVPVFLHPGVPPREITDSNYAAGLPTGIGTRLQTAAWGWHQETAVHFLHLVHSGVLDRYPDLQFILGHWGEMIPFYLDRVDEALPQRATGLDRSFHEYFRENVYLAPSGMWSQAQLRFCLETVPLERIVFAVDYPFIGNEGAVPFLEKAELPQADKRKIAHENAERLLGL
decarboxylation activity of dicamba: showed decarboxylation activity of dicamba

B12: SEQ ID NO:52: putative decarboxylase, Streptomyces sp. SA3_actG (protein, listed as Streptomyces sp.)
chain: MAKIIALEEHFSDPAVAKAGAARAQALSPGFAASYSPASGLPYSPSPEVLENLAEKRLADMDAGGITMQVLSGLSAQTVPADVAPALVAGSNDKAAAAVRAHPDRFAAFAALPTAAPEAAVAELDRSVNELGFVGTLIMGRTEGEFLDAPRFEPILARAAALKVPVFLHPGVPPREITDSNYAAGLPTGIGTRLQTAAWGWHQETAVHFLHLVHSGVLDRYPDLQFILGHWGETIPFYLDRVDEALPQRATGLDRSFHEYFRENVYLAPSGMWSQAQLRFCLETFPLERIVFAVDYPFIGNEGAVPFLEKAELPEADKRKIAHENAERLLGL
decarboxylation activity of dicamba: showed decarboxylation activity of dicamba

B13: SEQ ID NO:54: putative decarboxylase, Streptomyces sp. Tu6071 (protein, listed as Streptomyces sp.)
chain: MAKIIALEEHFSDPAVAKAGAARAQALSPGFAASYSPASGLPYSPSPEVLENLAEKRLADMDAGGITMQVLSGLGAQTVPADVAPALVAGSNDKAAAAVRAHPDRFAAFAALPTAAPEAAVAELDRSINELGFVGTLIMGRTEGEFLDAPRFEPILARAAALKVPVFLHPGVPPREITDSNYAAGLPTGIGTRLQTAAWGWHQETAVHFLHLVHSGVLDRYPGLQFILGHWGEMIPFYLDRVDEALPQRATGLDRSFHEYFRENVYLAPSGMWSQAQLRFCLETVPLERIVFAVDYPFIGNEGAVPFLEKAELPEADKRKIAHENAERLLGL
decarboxylation activity of dicamba: showed decarboxylation activity of dicamba
